Measured values as given in the supplement of paper PMC9170038.

Tests used:
MS2 coat protein [1] = assay: apparent KD of MS2 coat protein, switch ON state; designed switch direction (-1 OFF switch, 1 ON switch): -1; higher = weaker reporter binding; conditions: FMN input: 0 or 200 uM; Eterna round: R93 (includes R88 designs)
Procedure, shortened: (§1)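 Apparent KD per design is the median of normalised cluster binding-curve fits. Designed RNA switches transcribed on-chip from Illumina sequencing clusters were titrated with SNAP-549-labelled MS2 coat protein in twofold steps from 0.7 or 1.5 nM to 3 µM, with 0.8–1.5 h down to 10–20 min per step. Buffer: 100 mM Tris-HCl pH 7.5, 80 mM KCl, 4 mM MgCl2, without or with constant ligand.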

MS2 coat protein [2] = assay: apparent KD of MS2 coat protein, switch OFF state (with FMN for OFF switches, without FMN for ON switches); designed switch direction (-1 OFF switch, 1 ON switch): -1; higher = weaker reporter binding; conditions: FMN input: 0 or 200 uM; Eterna round: R93 (includes R88 designs)
Procedure, shortened: as §1

| Sequence | apparent KD of MS2 coat protein (MS2 coat protein [1]) [nM] | apparent KD of MS2 coat protein (MS2 coat protein [2]) [nM] |
| --- | --- | --- |
| AACUAGCUAGGAUAUACAUGAGGAUCACCCAUGUAAAAAAAAAAAAAAAGAUAUAUAUGUAGAAGGAGCUAGUA [Mod of Brourd] | 30.5 | 41.3 |
| AACUAGCUAGGAUAUACAUGAGGAUCACCCAUGUAAAAAAAAAAAAAAAGAUCAAAAUGUAGAAGGAGCUAGUA [Design 2 - Brourd - Exclusion 3] | 59.6 | 58.5 |
| AACUAGUCAGGAUAUACGAACAUGUCAAAAAACAUAAAGGGACAUGAGGAUCACCCAUGUAGAAGGGACUAACA [74%, Web mod - With 5 less G's] | 299 | 500 |
| AACUAGUCAGGAUAUACGAACAUGUCAAAAGACGUGAAGGGACAUGAGGAUCACCCAUGUAGAAGGGACUAGCA [74%, Web mod - With 1 less G's] | 47.1 | 147 |
| AACUGACAUGAGGAUCACCCAUGUCAGGAUAUGACUUGACGAAAAAAAACAUGUCAUGUCAGAAGGGACAUGGA [Design 89: Sub-opt Z] | 26.4 | 27.6 |
| AACUGACAUGAGGAUCACCCAUGUCAGGAUAUGAUAUGUAAAAAAAAAAAAAUACUUAUCAGAAGGGACAUGAA [Design 44: Sub-opt CB] | 15.1 | 14.1 |
| AACUGACAUGAGGAUCACCCAUGUCAGGAUAUGCUUCAUAAAAAAAAAAAAAAAUGAUGCAGAAGGGACAUGGA [Design 29 :P Sub-opt 5] | 20 | 24.5 |
| AACUGACAUGAGGAUCACCCAUGUCAGGAUAUGCUUCAUAAAAAGAAACAAAAAUGAUGCAGAAGGGAUAUGGA [Design 35 :P Sub-opt 11] | 13 | 13.9 |
| AACUGACAUGAGGAUCACCCAUGUCAGGAUAUGCUUCAUAAAACAAAAACAAAAUGAUGCAGAAGGGACAUGAA [Design 26 :P Sub-opt 2] | 16.3 | 14.6 |
| AACUGUACAGGAUAUACAUGAGGAUCACCCAUGUGAGAAUUAAGUGGGAAACCACAAAGUAGAAGGGUACAGGA [Mat - Exclusion 3 - JL mod - D19] | 29.1 | 162 |
| AAGAAACAUGAGGAUCACCCAUGUCAGGAUAUACAAAAGAAAAGAAAAGAAAGAAGAAGUAGAAGGGACAAAGG [Neitiqerty Siptah] | 38.3 | 69.3 |
| AAGAAACAUGAGGAUCACCCAUGUCAGGAUAUCAAAAAGAAAAGAAAAGAAAGAAGAAUGAGAAGGGACAAAGG [Meryibre Khety I] | 50.7 | 61.7 |
| AAGAAACAUGAGGAUCACCCAUGUCAGGAUAUGCAAAACUGACGAAAGUCAGAAGAAAGCAGAAGGGACUAGAA [5-pair stack] | 29.1 | 52 |
| AAGAAACAUGAGGAUCACCCAUGUCAGGAUAUUCAAAAGAAAAGAAAAGAAAGAAGAAGAAGAAGGGACAAAGG [Neferkare II] | 57.6 | 66.1 |
| AAGAAACAUGAGGAUCACCCAUGUGAGGAUAUACAAAAGAAAAGAAAAGAAAGAAGAAGUAGAAGGUACAAAGG [Merenre Nemtyemsaf II] | 23.7 | 26.6 |
| AAGAAACAUGAGGAUCACCCAUGUGAGGAUAUGGAAAAGAAAAGAAAAGAAAGAAGAACCAGAAGGCACAAAGG [Neferkare (VI) Pepiseneb] | 71.8 | 50.8 |
| AAGAAAGGAGGAUAUACAUGAGGAUCACCCAUGUAAAAGAAAGAAAAGGGAAAGAAAAGUAGAAGGCCUAAGAA [Usermaatre-meryamun Ramesses III] | 39.2 | 28.7 |
| AAGAAAGGAGGAUAUACAUGAGGAUCACCCAUGUAAAAGAAAGAAAGGGAAAAGAAAAGUAGAAGGCCUAAGAA [Shoshenq IV] | 35.3 | 41.2 |
| AAGAACACAGGAUAUACAUGAGGAUCACCCAUGUAAAAGAAAGAAAAGGGAAAGAAAAGUAGAAGGGUGAAGAA [Nebkheperure Tutankhaten] | 44.7 | 51.3 |
| AAGAACCAAGGAUAUACAUGAGGAUCACCCAUGUAAAAGAAAGAAAAGGGAAAGAAAAGUAGAAGGUGGAAGAA [Userkheperure Seti II] | 25.7 | 27.3 |
| AAGAACCGAGGAUAUACAUGAGGAUCACCCAUGUAAAAGAAAGAAGGGAAAGAGAAAAGUAGAAGGCGGAAGAA [Usermaatre Shoshenq VI] | 36.1 | 34.3 |
| AAGAACCGAGGAUAUACUAAAGAAAUGAAAAGAAAUAAAGAACAUGAGGAUCACCCAUGUAGAAGGCGGAAGAA [Nebefawre] | 27.4 | 23.4 |
| AAGAACCUAGGAUAUACUAAAGAAAUGAAAAGAAAUAAAGAACAUGAGGAUCACCCAUGUAGAAGGAGGAAGAA [Sewadjkare III] | 43.4 | 26.1 |
| AAGAACGAAGGAUAUACAUGAGGAUCACCCAUGUAAAAGAAAGAAGGGAAAGAGAAAAGUAGAAGGUCGAAGAA [Usermaatre Piye] | 22.2 | 24.4 |
| AAGAACGCAGGAUAUACAUGAGGAUCACCCAUGUAAAAGAAAGAGGGAAAAGAGAAAAGUAGAAGGGCGAAGAA [Setepenre-meryamun Ptolemy I Soter] | 37 | 57.8 |
| AAGAACGGAGGAUAUACUAAAGAAAUGAAAAGAAAUAAAGAACAUGAGGAUCACCCAUGUAGAAGGCCGAAGAA [Sehebre] | 17 | 23.7 |
| AAGAACGUAGGAUAUACAAAAUAAAAGAAAAGAAAGAAAGAACAUGAGGAUCACCCAUGUAGAAGGACGAAGAA [Sekhemrekhutawy Khabaw] | 21.6 | 21.8 |
| AAGAACUGAGGAUAUACAAAAUAAAAGAAAAGAAAGAAAGAACAUGAGGAUCACCCAUGUAGAAGGUAGAAGAA [Maakherure Amenemhat IV] | 31.3 | 33.4 |
| AAGAACUGAGGAUAUACAUGAGGAUCACCCAUGUAAAAGAAAGAAGGGAAAGAGAAAAGUAGAAGGCAGAAGAA [Inamunnifnebu] | 20.6 | 27.8 |
| AAGAAGCGAGGAUAUACAAAAUAAAAGAAAAGAAAGAAAGAACAUGAGGAUCACCCAUGUAGAAGGCGCAAGAA [Semenkare Nebnuni] | 34.9 | 28.5 |
